From US5495006A, “Antiviral polynucleotide conjugates” (Allelix Biopharmaceuticals, Inc., priority 1993, dated 1996)

Assays:
[1] = test system: HIV-1 Tat-derived peptide RKKRRQRRRPPQGS (Human immunodeficiency virus 1); assay: EMSA
[2] = test system: HSV-1; assay: Plaque reduction assay, HSV-1 in Vero cells; assay type: cell-based, herpes simplex virus type I; conditions: for % Inhibition (plaque reduction, HSV-1 replication): Vero cells, estimation
Procedure: Specifically, monolayers of cells were pretreated by incubation with one of conjugates (III) and (IV), infected with various concentrations of HSV-1 (measured by plaque forming units, PFU) and the infected cells were then incubated in the presence of conjugate. Following incubation with the conjugate, the cells were stained using the conventional crystal violet staining method. Those portions of the cell monolayer appearing as clear, unstained areas were identified as dead, virally-infected cells (i.e. plaques), while those areas stained purple indicated viable cells. Thus, inhibition of the virus was determined by counting, using a dissecting microscope, the number of plaques. The number of plaques on a plate incubated in the presence of conjugate was compared to the number of plaques on a control plate incubated in the absence of conjugate and the extent of viral inhibition was thus determined.
Vero cells (African green monkey kidney cells, ATCC CCL 81) were seeded into a 96-well plate at a concentration of 2×10^4 cells per well in 50 μl of Dulbecco's modified eagle medium (DMEM, Gibco). The media was supplemented with 10% Nu-serum (Biomedical Products), penicillin (100 IU/ml), streptomycin ([…]) and gentamicin (0.02 mg/ml) obtained from Gibco. The cells were pretreated with polynucleotide conjugate (III) at concentrations of 1 μM and 10 μM by incubation for 24 hours at 37° C. and 5% CO2. Following the incubation, the culture medium was removed from the cells. […]
The media was removed from the cells and the cells were subsequently stained with crystal violet in 70% ethanol:formalin:acetic acid (20:2:1) solution and heat fixed. The average number of plaques per well of each test sample were counted using a dissecting microscope (10-40× magnification). Inhibition was determined as the difference between the number of plaques in the control sample (0 μM conjugate) and the number of plaques in the test sample. […]

[3] = target: T1, HIV-1 Tat-derived peptide RKKRRQRRRPPQGS (Human immunodeficiency virus 1); assay: EMSA; 40.1% active RNA; conditions: protein: synthetic; tags: synthetic peptide, American Peptide Co; HIV LAI isolate; label: 5'-32P; linker-bridged hairpin with UCU bulge
T1 chain: RKKRRQRRRPPQGS

[4] = target: T1, HIV-1 Tat-derived peptide RKKRRQRRRPPQGS; assay: EMSA; 17.8% active RNA; conditions: protein: synthetic; tags: synthetic peptide, American Peptide Co; HIV LAI isolate; label: 5'-32P; linker-bridged hairpin with UCU bulge
[5] = target: T1, HIV-1 Tat-derived peptide RKKRRQRRRPPQGS; assay: EMSA; 10 mM Tris pH 7.5, 50 mM NaCl, 1 mM DTT, 1 mM EDTA, 23 C; 45.9% active RNA; conditions: protein: synthetic; tags: synthetic peptide, American Peptide Co; HIV LAI isolate; label: 5'-32P; hairpin with UCU bulge and 6-nt loop
[6] = target: T2, HIV-1 Tat full-length (86 aa) (Human immunodeficiency virus 1, UniProt P04608 P04608:1-86); assay: EMSA; pre-formed complex used for competition; conditions: tags: American Bio-Technologies, Inc; label: 5'-32P; hairpin with UCU bulge and 6-nt loop
[7] = target: T1, HIV-1 Tat-derived peptide RKKRRQRRRPPQGS; assay: EMSA; Tm 60 C; conditions: protein: synthetic; tags: synthetic peptide, American Peptide Co; HIV LAI isolate; label: 5'-32P; linker-bridged hairpin
[8] = target: T1, HIV-1 Tat-derived peptide RKKRRQRRRPPQGS; assay: EMSA; binds efficiently; conditions: protein: synthetic; tags: synthetic peptide, American Peptide Co; HIV LAI isolate; label: 32P; cyclic dumbbell with UCU bulge
[9] = target: T2, HIV-1 Tat full-length (86 aa); assay: EMSA; binds efficiently; conditions: tags: American Bio-Technologies, Inc; label: 32P; cyclic dumbbell with UCU bulge
[10] = target: T1, HIV-1 Tat-derived peptide RKKRRQRRRPPQGS; assay: EMSA; 38.3% active RNA; conditions: protein: synthetic; tags: synthetic peptide, American Peptide Co; HIV LAI isolate; label: 5'-32P; linker-bridged hairpin with UCU bulge
[11] = target: T1, HIV-1 Tat-derived peptide RKKRRQRRRPPQGS; assay: EMSA; Tm 61 C; SEQ 2 in the listing appears to be printed 3'-5'; conditions: protein: synthetic; tags: synthetic peptide, American Peptide Co; HIV LAI isolate; label: 5'-32P; bottom-linked duplex with UCU bulge

## GGAGAUCUGAGCGCUCUCUCC [TAR conjugate 5D]
[1]; linker D (hexaethylene glycol) replaces 6-nt loop between the two strands, 56.0% active RNA
  Kd: 0.66 nM

## GGAGAUCUGAGCGCUCUCUCC [TAR conjugate 5B]
[1]; linker B (triethylene glycol) replaces 6-nt loop between the two strands, 42.6% active RNA
  Kd: 0.95 nM

## conjugate (III): 22-deoxyribonucleotide fully hybridized ICP4 DNA-binding site (SEQ ID NOS 6 and 7), strands joined by linker LA HO--(CH2)9--OH (chain 1 CGCTATCGTCCATACCGACCAC; chain 2 GTGGTCGGTATGGACGATAGCG; DNA, backbone not given here; strands joined by nonanediol linker)
[2]; 1 μM conjugate
  % Inhibition (plaque reduction, HSV-1 replication): 25%
[2]; 10 μM conjugate
  % Inhibition (plaque reduction, HSV-1 replication): 50%
[2]; plaque reduction assay
  Inhibition of HSV-1 (in words): inhibit HSV-1

## GGAGAUCUGAGCGCUCUCUCC (ssRNA, linker A -O-(CH2)9-O- replaces 6-nt loop between the two strands) [TAR conjugate 5A]
[3]
  Kd: 0.71 nM

## GGAGAUCUGAGCGCUCUCUCC (ssRNA, two coupled linkers C replace 6-nt loop between the two strands) [TAR conjugate 5CC]
[4]
  Kd: 0.43 nM

## GGAGAUCUGAGCCUGGGAGCUCUCUCC (ssRNA) [TAR 27-mer (oligomer 4)]
[5]
  Kd: 0.41 nM
[6]
  binding result: binds

B1: TAR conjugate structure 8 (ssRNA)
RNA: GGAGAUGAGCGCUCUCUCC
modifications: bulge UCU replaced by U-Lc-Lc (two C3 linkers between nt 6 and nt 9); loop closure shown only in structure drawing
[7]
  Kd: 0.51 nM

## UCUCCUUCGGGAGAUCUGAGCCUGGGAGCUC (ssRNA, cyclic (T4 RNA ligase closed)) [cyclic TAR 31-mer (oligomer 13)]
[8]
  binding result: binds
[9]
  binding result: binds

## GGAGAUCUGAGCGCUCUCUCC (ssRNA, cyclic 21-mer, linker D at top and bottom of duplex) [cyclic TAR conjugate oligomer 15]
[9]
  binding result: binds

## GGAGAUCUGAGCGCUCUCUCC (ssRNA, two coupled linkers B replace 6-nt loop between the two strands) [TAR conjugate 5BB]
[10]
  Kd: 1.13 nM

## GCUCUCUCCGGAGAUCUGAGC (ssRNA, chemical linker at bottom of duplex between the two strands) [TAR conjugate oligomer 9]
[11]
  Kd: 2.2 nM
